Measurements reported in PMC10216145.

Biological target: thrombin (UniProt P00734;P00734 328-363;364-622)
Experiment: electrochemical aptasensor (DPV); immobilized aptamer; signal suppression on thrombin binding; LOD 0.26 fM, range 1.0 fM to 1.0 uM (abstract), not a Kd; Thrombin incubation 40 min at ambient temperature, wash with PBS; DPV in 25 mM PBS pH 7.0, -0.1 to 0.5 V

## GGTTGGTGTGGTTGG (ssDNA, 5'-SH-(CH2)6) [TBA (thrombin aptamer)]
  binding result: binds
